This is an account of results in US20160280788A1, “USE OF ANTIBODIES AGAINST ICAM-1 IN THE TREATMENT OF PATIENTS WITH RELAPSED CANCER” (BioInvent International AB, priority 2010, published 2016).

“Also recorded” adds a separate entry of the source. Where two headings read alike, the source gives them in different places.

One data set concerns RPMI-8226 myeloma cells. In words: Subcutaneous myeloma xenograft, RPMI-8226. It is filed as in vivo, scid mice. The conditions noted are these: 2 mg/kg twice weekly i.p.; vs control IgG1. The method, then:
(§1) Antibody treatment with 2 mg/kg BI-505 or control IgG1 was started at Day 1 and was continued on a twice-weekly intraperitoneal dosing regimen. Mice were sacrificed when tumor sizes reached the ethical limit.

A further data set deals with NCI-H929 myeloma cells. In words: Subcutaneous myeloma xenograft, NCI-H929. The conditions noted are these: 2 mg/kg twice weekly i.p.; vs control IgG1. It is filed as in vivo, scid mice. How it is done:
as §1

Data set [1] has as its system HUVEC and HMVEC endothelial cells. The data set can be described thus: PCD in normal endothelial cells. It is filed as cell-based. Conditions: resting or activated (IFN-γ) cells. The method, then:
(§2) Target cells were seeded in 96-well culture plates at a density of 2×10^6 cells/mL culture medium. Titrated concentrations of IgG1 B11 or different negative and positive control antibodies were added to the cells, in the absence or presence of anti-human Fab fragment (Jackson ImmunoResearch) for cross-linking. The cells were then incubated for 16 hours at 37° C. in a humidified atmosphere of 5% CO2. The cells were harvested and stained for Annexin V-488/Propidium Iodide (Invitrogen, Sweden) and analysed using flow cytometer (FACS Calibur, BD Bioscience).

The target in another data set is T1, human FcγRIIIa (Homo sapiens, UniProt P08637).
T1 construct: made in house; host or cells: HEK293E (transient)
T1 sequence (P08637 17-254): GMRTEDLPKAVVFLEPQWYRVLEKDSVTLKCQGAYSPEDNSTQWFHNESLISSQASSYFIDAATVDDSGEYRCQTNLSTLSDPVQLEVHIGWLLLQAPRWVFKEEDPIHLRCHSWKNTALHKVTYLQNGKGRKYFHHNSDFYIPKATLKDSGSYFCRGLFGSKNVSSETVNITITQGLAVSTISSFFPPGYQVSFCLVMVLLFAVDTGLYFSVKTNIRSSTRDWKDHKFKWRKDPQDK
In words: Biacore binding of BI-505 isotype variants to human FcγRIIIa. How it is done:
His-tagged human FcγRIIIa or mouse FcγRIV were expressed transient in adherent HEK293E cells, purified using Ni-NTA chromatography and characterized using SDS-PAGE and/or Biacore. Surface plasmon resonance (SPR) measurements were perfomed using a Biacore 3000 instrument. Goat α-human-F(ab)′2 F(ab)′2 fragment (Jackson laboratories) was immobilised with a CM-5 chip using a standard amine coupling protocol. IgG1 B11, Iga4 B11, or 297Q B11 were diluted to 15 and 60 μg/mL respectively and added to the surface at […] for 3 min. His tagged human FcγRIIIa or mouse FcγRIV were pre-incubated with an α-HIS antibody (R&D Systems) at a 2:1 molar ratio before addition to the chip surface, […], 1 min. After each cycle the surface was regenerated twice with glycine buffer pH 1.7.

The subject of data set [2] is F4/80 positive host effector cells in ARH-77 xenograft tissue. The conditions noted are these: compared to control IgG, untreated and rituximab treated mice.
Description: (FIG. 7A) ARH-77 cells were injected subcutaneously into the left flank of SCID mice (n=8 per group). […] Statistical significance was calculated relative to control antibody treatment using Kruskal-Wallis Test (Nonparametric ANOVA) with Dunn's Multiple Comparisons Test. Statistical significance was considered for *p<0.05, **p<0.01, and ***p<0.001.
The subject of a further data set is peripheral blood B cells. In words: PCD in normal B cells. The conditions noted are these: resting or activated cells. It is filed as cell-based. The method, then:
as §2

Data set [3] relates to B lymphoma cell line (CL-01). The data set can be described thus: ADCC of tumor cells with human NK effector cells. The format is cell-based. Conditions: human Natural Killer effector cells. From the text:
(§3) Buffy coats from human donors (ordered through Blodcentralen, Lund) were used to isolate peripheral blood mononuclear cells (PBMCs), and subsequently NK cells. Briefly, peripheral blood components were separated using Ficoll Paque PLUS (Amersham Biosciences, Sweden) in LeucoSep tubes (Greiner Bio-One). The PBMC fraction was removed and thoroughly washed in ice-cold DPBS (Invitrogen), before magnetic labeling and separation of the NK cell population using positive or negative NK cell isolation kits and MACS LS columns (Miltenyi Biotec). The purity of the obtained NK cell fractions was analyzed using flow cytometry, after staining with α-CD56 antibodies (BD Biosciences). Target cells were harvested, and incubated in medium with or without the respective antibodies (2 μg/mL) for 60 min on ice. Cells were thereafter washed and resuspended in cold medium before dispension into FACS tubes. Subsequently, isolated NK cells were diluted in ADCC medium and dispensed together with the respective antibody-coated target cells at varying effector/target cell ratios (40:1, 20:1, 5:1 and 1:1). All experiments were performed in triplicates. After completed incubation ToPo-Pro-3 dye and counting beads (Invitrogen) were added and cells were analyzed for membrane permeabilization using flow cytometry.

In data set [4] the test system is HUVEC, HMVEC or peripheral blood B cells. The data set can be described thus: CDC of normal ICAM-1 expressing cells. It is filed as cell-based. How it is done: (§4) Target cells were harvested and incubated in RPMI medium with antibodies at 5 μg/mL or at titrated concentrations between 0.01-100 μg/mL for 60 min on ice. Cells were thereafter washed and resuspended in cold medium before dispension into flow cytometry tubes. Treatments were performed in triplicates. Human serum, normal or heat-inactivated, (Sigma, Sweden) was added to tubes and the samples were incubated for 2 h at 37° C. After completed incubation ToPo-Pro-3 was added at a final concentration of 0.3 μM and cells were analyzed for membrane permeabilization using flow cytometry.

The test system of data set [5] is PBMC. The data set can be described thus: PBMC cytokine release. It is filed as cell-based.
A further data set has as its system Daudi lymphoma cells. The data set can be described thus: Programmed cell death (PCD) assay, Daudi. It is filed as cell-based, human. How it is done:
Target cells were seeded in 96-well culture plates at a density of 2×10^6 cells/mL culture medium. […] The cells were then incubated for 16 hours at 37° C. in a humidified atmosphere of 5% CO2. The cells were harvested and stained for Annexin V-488/Propidium Iodide (Invitrogen, Sweden) and analysed using flow cytometer (FACS Calibur, BD Bioscience).

Data set [6] relates to HUVEC, HMVEC or peripheral blood B cells. The data set can be described thus: ADCC of normal ICAM-1 expressing cells. It is filed as cell-based.
Description: as §3

Another data set deals with EJM myeloma cells. The data set can be described thus: Subcutaneous myeloma xenograft, EJM. It is filed as in vivo, scid mice. The conditions noted are these: 2 mg/kg twice weekly i.p.; vs control IgG1. The method, then: as §1
For the next data set, the system named is Daudi cells. In words: Subcutaneous Daudi non-Hodgkin lymphoma xenograft. The format is in vivo, scid mice. The conditions noted are these: twice weekly i.p. from day 1; compared to rituximab.
The next data set deals with ARH-77 tumors. The data set can be described thus: Subcutaneous scid/ARH-77 xenograft, established (palpable tumor) model. Conditions: IgG B11 even at 0.2 mg/kg (100-fold lower dose than rituximab).
The subject of data set [7] is ICAM-1 expressing tumor cell lines. In words: Complement-dependent cytotoxicity in tumor cell lines. The format is cell-based. The conditions noted are these: panel of ICAM-1 expressing tumor cell lines; human serum. The method, then:
as §4

For data set [8], the system named is PBMC. In words: PBMC / T cell proliferation. The format is cell-based.
In a further data set the test system is OPM-2 myeloma cells. In words: Subcutaneous myeloma xenograft, OPM-2 (ICAM-1 negative). The format is in vivo, scid mice. The conditions noted are these: 2 mg/kg twice weekly i.p.; ICAM-1 negative cell line. How it is done: as §1
[9] abbreviates: added in solution, resting or lipopolysaccharide pre-stimulated PBMCs.
Setting [10] is: immobilised by either protocol, or in solution with or without cross-linking reagent.

Description for ARH-77 tumors: Mice were anaesthetized with a mixture of sevofluran and oxygen prior to myeloma cell inoculation and 1-5×10^6 myeloma cells were then subcutaneously injected in a volume of 100 μl into the left flank. Treatment with antibodies by intraperitonial (i.p.) injections was started either the day after cell inoculation (prophylactic model) or when tumors reached a size of approximately 100 mm^3 (established model). Antibodies were administrated in PBS in a total volume of 200 μL. Treatment with PBS or isotype control was used as control. Tumors were measured with a digital calliper and the tumor volumes were calculated according to formula: width^2×length×0.52. Animals were sacrificed when the tumor sizes reached the ethical limit of 1.5 cm. Surviving mice were sacrificed after a maximum of 5 months. Blood samples collected from the vena cava were centrifuged at 2500 g for 15 min to obtain serum and the samples were stored at −20° C. Tumors were removed for immunohistochemistry, snap frozen and were kept at −85° C.

B1: IgG B11: fully human ICAM-1 antibody isolated from the n-CoDeR library; VH/VL sequences in FIG. 15 (SEQ ID NOs 8, 10) (antibody, V domains shown)
VH: EVQLLESGGGLVQPGGSLRLSCAASGFTFSNAWMSWVRQAPGKGLEWVAFIWYDGSNKYYADSVKGRFTISRDNSKNTLYLQMNSLRAEDTAVYYCARYSGWYFDYWGQGTLVTVSS
VL: QSVLTQPPSASGTPGQRVTISCTGSSSNIGAGYDVHWYQQLPGTAPKLLIYDNNNRPSGVPDRFSGSKSGTSASLAISGLRSEDEADYYCQSYDSSLSAWLFGGGTKLTVLG
modifications: B11 VH region; B11 VL region
Take B1: the “reduction of myeloma tumor growth” value in the data set with RPMI-8226 myeloma cells was determined as 96%; in the data set with NCI-H929 myeloma cells it was 99%; in the data set on EJM myeloma cells, 98%. In addition, in data set [1], the “PCD induction in normal endothelial cells” value is recorded as “did not, however, induce PCD”. In addition, the “binding to human FcγRIIIa” value with human FcγRIIIa was “bound to human FcγRIIIa”. In addition, the “influx of F4/80+ host effector cells (macrophage infiltration) in tumor tissue” value is “massive influx” in [2] and “significantly increased” in data set [2] (listed as BI-505). In addition, the “PCD induction in normal B cells” value in the data set on peripheral blood B cells is given as “did not, however, induce PCD”. In [3], the “ADCC of target tumor cells” value is reported as “mediated ADCC”. In addition, the “CDC of normal cells” value in data set [4] was “did not confer ADCC or CDC”. Further, in the data set on PBMC [5] (setting [9]), the cytokine release entry is listed as “did not induce or enhance cytokine release”. Also, in the data set with PBMC [5] (setting [10]), the PBMC cytokine release entry is reported as “induce PBMC cytokine release”. Moreover, the PCD induction result in the data set on Daudi lymphoma cells (antibody immobilised by either of two coating protocols) is “induced programmed cell death”; in the data set with Daudi lymphoma cells (titrated antibody with cross-linking, 16 hours) it was “dose dependent PCD-induction”. Also, the “ADCC of normal cells” value in data set [6] is on record as “did not confer ADCC”. Also, the “survival of tumor bearing mice” value in the data set with Daudi cells is “prolonged survival”. The tumor growth entry in the data set on Daudi cells is “prevented tumor growth”; with ARH-77 tumors, “significantly prevented tumor growth”; in the data set on OPM-2 myeloma cells, “no effect on tumor growth; also recorded: did not affect tumor growth”. In addition, the animal survival entry with ARH-77 tumors is reported as “prolonged animal survival”. In addition, the “induction of CDC” value in data set [7] is reported as “did not induce CDC”. Further, the cell proliferation result with PBMC [8] (setting [9]) and in the data set on PBMC [8] (setting [10]) was “did not induce cell proliferation” throughout.
